Source: patent US20200392528A1, “IMPROVED PLANT EPSP SYNTHASES AND METHODS OF USE” (PIONEER HI-BRED INTERNATIONAL, INC., priority 2017, published 2020)
Substitutions are numbered along the chain they refer to. Where two headings read alike, the source gives them in different places.

B1: Zm D2-28: maize EPSPS variant, SEQ ID NO: 8 (protein)
chain: MRKWEEIVLQPIKEISGTVKLPGSKSLSNRILLLAGLAEGTTVVDNLLNSEDVHYMLGALRTLGLSVEHDKAAKRAVVVGCGGRFPVEDAKGEVQLFCGNAATAMRPLTAAVTAAGGNATYVLDGVPRMRERPIGDLVVGLKQLGADVDCFLGTDCPPVRVNGIGGLPGGKVKLSGSISSQYLSALLMAAPLALGDVEIEIIDKLISLPYVEMTLRLMERFGVKAERSDSWDRFYIKGGQSYLSPKNAYVEGDASSASYFLAGAAITGGTVTVEGCGTTSLQGDVKFAEVLEMMGAKVTWTEASVTVTGPPREPFGRKHLKAIDVNMNKMPDAAMTLAVVALFADGPTAIRDVGSWRVKETERMVAIRTELTKLGASVEEGPDYCIITPPEKLNVTAIDTYGDHRMAMAFSLAACAEVPVTIRDPGCTRKTFPDYFDVLSTFVKN
modifications: Zea mays
B2: Zm D2-68: maize EPSPS variant, SEQ ID NO: 4 (protein)
chain: B1 chain with G36A, H54L, R227H, S241K, A303T, G354A, R368C, E391P
modifications: Zea mays
B3: Zm D2-82: maize EPSPS variant, SEQ ID NO: 6 (protein)
chain: B1 chain with G36A, A38S, R227H, S241K, L243E, A303T, R368C, E391P
modifications: Zea mays
B4: Zm D2-67: maize EPSPS variant, SEQ ID NO: 5 (protein)
chain: B1 chain with G36A, A38S, R227H, S241K, L243E, A303T, E391P
modifications: Zea mays
B5: Zm D2-3P124: maize EPSPS variant, SEQ ID NO: 3; D2-124 has 18 mutations (protein)
chain: MRKWEEIVLQPIKEISGTVKLPGSKSLSNRILLLAALSEGTTVVDNLLNSEDVGYMLGALRTLGLSVEHDEAAKRAVVVGCGGRFPVEDAKGEVQLFCGNAATAMRPLTAAVTAAGGNATYVLDGVPRMRERPIGDLVVGLKQLGADVDCFLGTDCPPVRVNGIGGLPGGKVKLSGSISSQYLSALLMAAPLALGDVEIEIIDKLISLPYVEMTLRLMERFGVRAEHSDSWDRFYIKGGQKYESPKNAYVEGDASSASYFLAGAAITGGTVTVEGCGTTSLQGDVKFAEVLEMMGAKVTWTETSVTVTGPPREPFGRKHLKAIDVNMNKMPDAAMTLAVVALFADGPTAIRDVGSWRVKETERMVAIRTELTKLGASVEEGPDYCIITPPPKLNVTAIDTYGDHRMAMAFSLAACGEVPVTIRDPGCTRKTFPDYFDVLSTFVKN
modifications: Zea mays
notes: D2-124 has 18 mutations
B6: Zm D2c-A5: maize EPSPS variant with 21 mutations, SEQ ID NO: 59 (protein)
chain: B5 chain with R2S, N162R, M293L, E302P
modifications: Zea mays
B7: Zm F3: maize EPSPS variant, SEQ ID NO: 11 (protein)
chain: MAGAEEIVLQPIKEISGTVKLPGSKSLSNRILLLAALSEGTTVVDNLLNSEDVHYMLGALRTLGLSVEADKAAKRAVVVGCGGKFPVEDAKEEVQLFCGNAATAMRPLTAAVTAAGGNATYVLDGVPRMRERPIGDLVVGLKQLGADVDCFLGTDCPPVRVNGIGGLPGGKVKLSGSISSQYLSALLMAAPLALGDVEIEIIDKLISIPYVEMTLRLMERFGVKAEHSDSWDRFYIKGGQKYKSPKNAYVEGDASSASYFLAGAAITGGTVTVEGCGTTSLQGDVKFAEVLEMMGAKVTWTETSVTVTGPPREPFGRKHLKAIDVNMNKMPDVAMTLAVVALFADGPTAIRDVASWRVKESERMVAIRTELTKLGASVEEGPDYCIITPPEKLNVTAIDTYGDHRMAMAFSLAACAEVPVTIRDPGCTRKTFPDYFDVLSTFVKN
modifications: Zea mays
B8: Zm F3-88: maize EPSPS variant, SEQ ID NO: 12 (protein)
chain: B7 chain with H54G, R216V, E226Y, K297A, V333A, R429A
modifications: Zea mays

Assays:
maize EPSPS [1] = assay: kcat gly / kgly: enzyme turnover under application conditions (30 μM PEP and S3P, 1 mM glyphosate), phosphate release coupled to MESG; assay type: biochemical; settings: for Zm/Os: ratio of kcat gly, maize variant to rice ortholog; for kgly: enzyme turnover at 30 μM PEP and S3P
Experimental: A more straight-forward, accurate and meaningful parameter is one in which one rate measurement is performed under presumed in vivo conditions, if known. To establish a set of conditions that mimic those under which the mutated enzyme needs to perform, the concentrations of PEP and S3P were set low (30 uM, subject to the sensitivity of assay conditions) to approach the presumed intracellular concentrations (˜15 uM, the approximate values of KM for both PEP and S3P). Glyphosate is included at 1 mM. The pH is set at 7.0 and ionic strength at 100 mM KCl, also to mimic known in vivo conditions. Ethylene glycol is present at 5% (v/v) to approximate the dielectric constant of intracellular fluid. The parameter is termed “enzyme turnover under application conditions”, which is herein shortened to “kcat gly”. The conventional formatting of the expression “kcat” is not used, to avoid this term being characterized as a standard kinetic constant.
(§1) EPSPS activity was determined by quantifying the phosphate generated from the EPSPS reaction. Release of inorganic phosphate was coupled to its reaction with 2-amino-6-mercapto-7-methylpurine ribonucleoside (MESG), catalyzed by purine nucleoside phosphorylase, according to previously described protocols. To determine the kcat gly, enzyme preparations were normalized to 0.1 mg/ml and four- to six-microliter aliquots of normalized enzyme were added to the wells of a low UV-absorbing 96-well assay plate (Greiner UV-Star). Reactions were started with the addition of 2×147 μl of reaction mixture containing 25 mM Hepes, pH 7.0, 100 mM KCl, 5% ethylene glycol, 30 μM each of PEP and S3P, 0.15 mM MESG, 1.5 U/ml purine nucleoside phosphorylase (Sigma N8264) and 1 mM glyphosate. Absorbance was monitored at 4 sec intervals for 50 sec with a Spectramax plate reader (Molecular Devices). […] Division by the enzyme concentration (0.04 to 0.1 uM, depending on activity) yields “kcat gly” in units of min^−1.
(§2) Approximately 30 substitutions were designed into each library. Assuming an average incorporation rate of six substitutions per variant, the theoretical size of such libraries is ˜7×10^5. Libraries were screened using methods described previously and the enhanced method described in Example 2. The number of colony-forming units plated and screened was in the range of 50 to 100% of the theoretical size. Up to 200 colonies per library were picked for evaluation of the expressed variant. Proteins were purified as described previously in PCT/US2016/054399, incorporated herein by reference. Protein concentration was determined by measuring optical density at 280 nm. The extinction coefficient of native maize EPSPS (0.676 OD/mg/ml) was calculated by vNTI and used to convert OD280 to mg/ml. Kinetic parameters were determined as described in Example 1.
A customized parameter for predicting performance in the treated plant that would be a more accurate representation than kcat/Km*Ki. […] However, kcat/Km*Ki may be inadequate for predicting the reaction velocity under the conditions of the application (plants sprayed with glyphosate) because it may neglect concentrations of substrate and inhibitor, factors that are not intrinsic to the enzyme, but on which the reaction rate depends. Therefore, libraries derived from C1 on in FIG. 2 were evaluated with a single rate measurement designed to take all factors in the rate equation for competitive inhibition into account. […] Glyphosate was included at 1 mM, a concentration attainable in tissues, especially meristems, receiving metabolite flow from treated leaves. The pH (7.0), ionic strength (100 mM KCl) and co-solvent concentration (5% ethylene glycol) were also intended to mimic in vivo conditions. The unit for the parameter is reaction rate (μM·min^−1) per enzyme concentration (μM), or min^−1, describing the enzyme turnover under application conditions, which we abbreviate as “kgly”. […]

maize EPSPS [2] = assay: substrate saturation kinetic analysis (kcat, KM PEP, KI glyphosate); assay type: biochemical; settings: for KI/KM: discrimination between glyphosate and PEP; for kcat/Km*Ki: calculated with Km for PEP
Experimental: as §1, §2
Combinatorial shuffling, maize native EPSPS—The mutations discovered were used to construct a combinatorial library designed to explore combinations of the desensitizing mutations in novel sequence contexts provided by the newly identified neutral mutations. Note that the amino acid position numbering in this Example 10 refers to the relative position of native maize EPSPS without the N-terminal Met. Therefore, G101A in this Example would be G102A in reference to SEQ ID NO: 1, wherein the maize EPSPS sequence has a Met added at the N-terminal. The diversity used was the same with the addition of G101A, T102 (IALGV) and P106(WA). In all, 43 substitutions at 29 positions were selected. The library was synthesized entirely from oligonucleotides, using the known technique of synthetic shuffling and was termed NatFS (Native, fully synthetic). The vector DNA of the library was transformed into the BL21(DE3) Tuner-AroA knockout strain and the cells were plated onto M9 medium containing either 30 mM glyphosate and 30 μM of the lac operon inducer isopropyl β-D-1-thiogalactopyranoside (IPTG) or 50 mM glyphosate and no IPTG. The 184 colonies that grew on either plate were picked and subjected to a second tier of screening in which EPSPS proteins were purified and activity measured at high (200 μM) and low (50 μM) PEP and S3P, with or without 10 μM glyphosate. Selected variants were subjected to substrate saturation kinetic analysis.

[3] = Table 2, 30 μM PEP and S3P, 1 mM glyphosate, pH 7.0
[4] = Table 2, KM for PEP, read-out: KM
[5] = apparent Km, PEP present at 10 times its Km, read-out: Km S3P
[6] = apparent Km, S3P present at 10 times its Km, read-out: Km PEP

Row | Molecule | kcat gly (maize EPSPS [1]; [3]) | kcat (maize EPSPS [2]; Table 2) | kcat/KM*KI (maize EPSPS [2]; Table 2) | Km (maize EPSPS [2]; [4]) | KI/KM (maize EPSPS [2]; Table 2) | Ki (maize EPSPS [2]; Table 2, inhibitor glyphosate) | kcat gly (maize EPSPS [1]; Table 5, maize variants) | Zm/Os (maize EPSPS [1]; Table 5) | kgly (maize EPSPS [1]; 1 mM glyphosate) | Ki (maize EPSPS [2]; Ki for glyphosate) | Km (maize EPSPS [2]; [5]) | Km (maize EPSPS [2]; [6]) | kcat/Km*Ki (maize EPSPS [2]) | kcat (maize EPSPS [2]; maize EPSPS variants) | kcat gly (maize EPSPS [1]; D2c variants with substitutions relative to D2-124, no unit in table (kcat gly given in min^−1))
1 | B1 | 120 min⁻¹ | 8.03 s⁻¹ | 21500 | 15.8 µM | 44.5 | 703 µM | – | – | – | – | – | – | – | – | –
2 | B2 | 113 min⁻¹ | 9.23 s⁻¹ | 37400 | 22.1 µM | 67.5 | 1490 µM | – | – | – | – | – | – | – | – | –
3 | B3 | 124 min⁻¹ | 10.4 s⁻¹ | 30900 | 26.3 µM | 49.4 | 1300 µM | – | – | – | – | – | – | – | – | –
4 | B4 | 119 min⁻¹ | 9.47 s⁻¹ | 27100 | 20 µM | 47.7 | 955 µM | 138 min⁻¹ | 1.35 | – | – | – | – | – | – | –
5 | B5 | 132 min⁻¹ | 9.88 s⁻¹ | 22710 | 34.7 µM | 38.3 | 1330 µM | – | – | 175 ± 2.5 min⁻¹ | 893 ± 53 µM | 11.1 ± 0.7 µM | 18.1 ± 0.7 µM | 31130 | 10.5 ± 0.083 s⁻¹ | –
6 | B6 | – | – | – | – | – | – | – | – | 186 ± 4.7 min⁻¹ | 839 ± 40 µM | 12.6 ± 1.4 µM | 18.1 ± 0.6 µM | 34350 | 12.4 ± 0.1 s⁻¹ | 156
7 | B7 | 39.3 min⁻¹ | 7.87 s⁻¹ | 7280 | 71.5 µM | 15.4 | 1100 µM | 45.2 min⁻¹ | 1.16 | – | – | – | – | – | – | –
8 | B8 | 85.7 min⁻¹ | 11.6 s⁻¹ | 29600 | 55.6 µM | 44.0 | 2440 µM | 98 min⁻¹ | 1.57 | – | – | – | – | – | – | –
